Target: Pyruvate kinase M2 (PKM2), endogenous (human (endogenous in HeLa and HCT116)) (UniProt P14618)
Experiment: cross-linking; cell or tumor tissue lysate in PBS with 0.1% Triton X-100; 4 ug protein crosslinked with 0.025% glutaraldehyde for 2 min at 37 C, stopped with Tris-HCl pH 8.0 50 mM; SDS-PAGE and WB with anti-PKM2; cells with HITT overexpression or KD, HITT fragments, miR-106, FBP; HCT116 xenografts

Sequence of Pyruvate kinase M2 (PKM2), endogenous, P14618 1-531 (enzyme; other documents disagree on this pair) (P14618 whole entry): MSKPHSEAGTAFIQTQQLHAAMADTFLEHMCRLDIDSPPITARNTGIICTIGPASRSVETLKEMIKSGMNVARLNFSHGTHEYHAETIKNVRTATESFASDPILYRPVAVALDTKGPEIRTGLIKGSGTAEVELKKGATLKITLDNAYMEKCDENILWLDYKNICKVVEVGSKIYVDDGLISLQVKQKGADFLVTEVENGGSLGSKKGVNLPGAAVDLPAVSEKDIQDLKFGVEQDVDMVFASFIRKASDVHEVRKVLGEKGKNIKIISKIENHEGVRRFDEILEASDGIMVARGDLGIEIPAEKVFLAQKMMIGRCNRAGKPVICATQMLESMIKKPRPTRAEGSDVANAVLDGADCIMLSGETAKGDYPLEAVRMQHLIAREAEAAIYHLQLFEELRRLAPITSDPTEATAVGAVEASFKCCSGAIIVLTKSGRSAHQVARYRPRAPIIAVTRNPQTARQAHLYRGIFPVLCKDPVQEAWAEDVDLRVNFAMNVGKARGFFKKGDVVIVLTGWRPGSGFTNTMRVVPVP

stoichiometry N: 2
Substance: Pyruvate kinase M2 (PKM2), endogenous, P14618 1-531 (enzyme; other documents disagree on this pair)

Source: paper PMC9285634
